Test results from paper PMC8948145, “Piperonal synthase from black pepper (Piper nigrum) synthesizes a phenolic aroma compound, piperonal, as a CoA-independent catalysis” (Applied Biological Chemistry, 2022).

System: O=C(O)/C=C/c1ccc2c(c1)OCO2
Assay: GC-MS quantitation of piperonal, Michaelis-Menten fit
Format: biochemical, Piper nigrum
Conditions: 50 µM to 1.6 mM substrate; no ATP, CoA-SH or NAD+; pH of the kinetic assay not printed in main text

PnPNS (piperonal synthase; PnMCHL, 3,4-methylenedioxycinnamic acid hydratase-lyase) (Piper nigrum)
Km: 317.2 µM
kcat: 2.7 s⁻¹
